Source: patent US20020034770A1, “COMPOUNDS THAT INTERFERE WITH DNA REPLICATION IN RAPIDLY PRO[…] FOR USE IN CANCER THERAPY AND METHODS FOR SCREENING FOR SUCH COMPOUNDS” (priority 1996, published 2002)

Target: T1, Cdc6-associated kinase (Clb/Cdk1 kinases) (Saccharomyces cerevisiae, UniProt P00546)
T1 construct: 1 mg of protein extract from K4527, grown in YEPR at 25° C. or induced for 4 hours in YEPRG, was immunoprecipitated with 12CA5 Ab; endogenous in cells; host or cells: S. cerevisiae strain K4527 (W303 background, wild type, 5 copies of GAL-HA3CDC6); The kinase is endogenous; Only the Cdc6 bait is expressed from an introduced construct
Assay: Histone H1 kinase assay of Cdc6-associated kinase immunoprecipitated with 12CA5 Ab
Assay type: biochemical
Conditions: HA3Cdc6 immunoprecipitate from K4527 extract (GAL-HA3CDC6, induced 4 hours in YEPRG); FIG. 5D
Experimental: Protein extracts were prepared as in Schwob et al., 1994. For Clb2 kinase assays, […] of total proteins were immunoprecipitated using anti-Clb2 Ab (1:30, Amon et al., 1992). To assay Cdc6-associated kinase, HA3Cdc6 or Cdc6HA3 was immunoprecipitated with 12CA5 Ab (1:10) from the amounts of protein extracts indicated in figure legends. Histone Hi kinase activity was measured as previously described (Schwob et al., 1994).
D) Cdc6-associated kinase is inhibited by p40^SIC1. 1 mg of protein extract from K4527, grown in YEPR at 25° C. or induced for 4 hours in YEPRG, was immunoprecipitated with 12CA5 Ab and before the last washing step split into four aliquots. Kinase activity was measured in the absence or in the presence of the indicated amounts of purified p40^SIC1. R:Raffinose. G: Galactose. The addition of p40^SIC1 causes the appearance of two additional signals probably due to phosphorylation of p40^SIC1 by an aspecific kinase. E) Cdc28p co-immunoprecipitates with Cdc6p. Cdc6p was immunoprecipitated with 12CA5 Ab from protein extracts (5 mg) of K4527 cells grown at 25° C. in YEPR and induced for 4 hours in YEPRG. Protein A-Sepharose beads were boiled in SDS buffer and analysed by Western blot using Cdc28 Ab (1:500) ([…]. R: Raffinose. G: Galactose).

T1 sequence (P00546 whole entry): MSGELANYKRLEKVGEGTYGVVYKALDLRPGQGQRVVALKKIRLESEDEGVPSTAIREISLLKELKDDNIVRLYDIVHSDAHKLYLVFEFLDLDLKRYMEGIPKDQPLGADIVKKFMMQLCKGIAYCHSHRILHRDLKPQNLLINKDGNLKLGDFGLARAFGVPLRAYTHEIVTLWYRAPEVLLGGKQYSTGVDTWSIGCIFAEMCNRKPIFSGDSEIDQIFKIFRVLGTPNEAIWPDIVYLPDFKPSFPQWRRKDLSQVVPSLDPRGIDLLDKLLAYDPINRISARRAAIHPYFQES

B1: p40^SIC1: purified Clb-specific Cdk inhibitor protein of budding yeast, encoded by SIC1 (protein, UniProt P38634 1-284, looked up)
Protein SIC1: MTPSTPPRSRGTRYLAQPSGNTSSSALMQGQKTPQKPSQNLVPVTPSTTKSFKNAPLLAPPNSNMGMTSPFNGLTSPQRSPFPKSSVKRTLFQFESHDNGTVREEQEPLGRVNRILFPTQQNVDIDAAEEEEEGEVLLPPSRPTSARQLHLSLERDEFDQTHRKKIIKDVPGTPSDKVITFELAKNWNNNSPKNDARSQESEDEEDIIINPVRVGKNPFASDELVTQEIRNERKRAMLRENPDIEDVITYVNKKGEVVEKRRLTDEEKRRFKPKALFQSRDQEH
Cdc6-associated histone H1 kinase activity on addition of purified p40^SIC1: inhibited
